Measurements: patent US20200216824A1, “REGULATING PROTEIN SPONTANEOUS RUPTURES” (Bowling Green State University, priority 2019, published 2020)
“Also recorded” adds a separate entry of the source.

Experiments:
calmodulin (CaM) = calmodulin (CaM) (Homo sapiens, UniProt P0DP23); experiment: Effect of Ca2+ / EGTA on CaM rupture under AFM compressive force; conditions: 1 mM CaCl2 for Ca2+; 2 mM EGTA buffer treatment
Experimental: (§1) In the experiment of compressive force manipulation on both Apo- and Ca^2+-ligated CaM, a modified AFM apparatus with an ultra-soft AFM tip was used to apply compressive force on a single protein molecule tethered to a glass coverslip through covalent bonding between the linker molecule and amino group of the protein, and its response was studied.
The same experiment was carried out on Ca^2+-ligated CaM. FIG. 14B represents the typical AFM compressive force curve on a Ca^2+-ligated single CaM molecule. […] Nevertheless, repeated rupture events on a single protein molecule have been noticed when a repeated force manipulation experiment on the same protein molecule has been carried out.
FIG. 29 illustrates the scheme of tethering single protein molecules on a cover glass surface. The cover glass (Gold Seal) was first cleaned and silanized with a mixture of (3-aminopropyl) trimethoxysilane, isobutyltrimethoxysilane with a ratio of 1:1000 dissolved in DMSO (10% v/v) for 12 hours, and then incubated in 10 nM dimethyl suberimidate in 50 mM PBS (pH 8.0) for 4 h. After washing with water and methanol, the glass slide was incubated in 10 nM CaM solutions (PBS, pH 7.4) for 4 h. […]
Typical compressive force curves were recorded under different conditions. […]

tau protein = tau protein (Homo sapiens, UniProt P10636); experiment: Effect of cations on tau protein rupture under AFM compressive force; conditions: buffer solution pH 7.4
Description: This gives the indication of the presence of two forms of tau protein under different ionic environment. Under K^+environment tau protein exists as a relatively rigid protein structure which is more prone to collapse under compressive force build up. […] In addition, it was also investigated whether this kind of spontaneous and simultaneous rupture of multiple proteins under close proximity can develop an entangled protein third state, a fusion state, and can be a plausible mechanism for protein aggregation.
The protein molecules were tethered to the cover glass through covalent bonding between the amine group of the protein and the linker molecule attached to the coverglass surface. All the force curves were recorded under buffer solution (pH 7.4). When the AFM tip apex touches the surface of the protein molecule it starts loading force on it, once the force reaches a threshold value it can no longer withhold the force and collapses (FIG. 16A). This kind of behavior exists in globular proteins such as HPPK, calmodulin, and others.
Without wishing to be bound by theory, it is believed that there is a comprehensive model for two types of protein structure responses under compressive forces (FIG. 18C, green curve). One is a balloon-like type, reflected by the stress-strain curve in FIG. 18C, which is more rigid in nature and show rupture under compressive force. […]

[1] = AFM compressive force rupture of single CaM molecules (CaM, Apo-CaM, Ca2+-ligated CaM); type: physicochemical
Experimental: The mean rupture force from the distributions are 25 pN and 47 pN for CaM and HPPK molecules, respectively. ΔG was also calculated for CaM rupture, which is about 25.6±7.3 kBT using Bell-Evans Model. The characteristic behavior is due to different structural rigidity and a different vector orientation of the mechanical force inside different protein molecules.
The experiments for CaM protein were repeated under five different ALRs. FIGS. 11A-11E show the statistical distribution of the threshold force at five different ALRs and characterization of CaM rupture force and loading energy. FIGS. 11A-11E show the rupture threshold force distribution in different loading velocities. […] Loading velocity is 100 nm/s. The threshold force required for a single CaM protein molecule to rupture increases from 12 pN to 35 pN as the approaching velocity increases from 50 nm/s to 1000 nm/s, and the threshold force increases linearly along with the log of ALR (FIG. 8D).
as §1
From this distribution, the rupture force was calculated to be around 70 pN. This rupture force is dependent on the AFM tip approaching velocity. To calculate the actual threshold force loading distance, i.e., the amount of structural change of the targeted Apo-CaM molecule under the process of compressive force loading to the threshold value, the force curves were analyzed considering two factors. First, the force loading process causes the tip bending. Because of that, the distance traveled by the electropiezo scanner exceeds the distance traveled by the AFM tip apex. The amount of tip bending in the process of force loading can be easily taken in account considering the force constant of the cantilever (30 pN/nm). Second, the contribution of the hydration shell around a protein molecule (1-2 nm of width) was considered. Therefore, in the recorded force curves, force increases in a much slower rate at the beginning which corresponds to the AFM tip interaction with the outer solvation layer of the protein. In the latter part of the force curve, the force increases in a much faster manner as the AFM tip starts to interact with the protein surface directly. Without wishing to be bound by theory, it is believed that the contact occurs when the compressive force loaded by the AFM tip reaches a certain value to counter the water solvation layer. […]
It is the distance between the point where force loading starts and the point where protein rupture occurs. […] The loading energy was calculated using Eloading=∫F(l)dl, where l is the compressive force loading distance, and F(l) is the loading force. […] Under this approximation, distribution of the calculated threshold compressive force loading energy was plotted in FIG. 15D using Eloading=(F threshold/2)×lthreshold and the mean value was around 32 kBT; however, the energy can be as low as 10 kBT with significant probability, which is biologically accessible from the local thermal fluctuations, such as in living mammalian cells at 37° C.
The loading energy was calculated using Eloading=J F(l)dl. l is the compressive force loading distance, and F(l) is the loading force curve. […]

[2] = AFM-FRET compressive force rupture of single HPPK molecules; type: physicochemical
Description: 6-hydroxymethyl-7,8-dihydropterin pyrophosphokinase (HPPK) is a 158-residue monomer kinase enzyme protein which acts as a catalyst in the pyrophosphorylation reaction that drives the conversion of 6-hydroxymethyl-7,8-dihydropterin (HP) to 6-hydroxymethyl-7,8-dihydropterin pyrophosphate (HPPP) in the presence of ATP leading to the biosynthesis of folate cofactors. AFM was used to apply the compressive force on single protein molecules that are tethered on the glass cover slip surface at a controlled low density for single-molecule measurements. The enzyme HPPK was labeled with Cy3/Cy5 donor acceptor FRET pair on the amino acid residues 88 and 142, respectively (FIG. 2A), for probing the conformational changes of single protein under the compressive force.
The structural rupture of a single HPPK protein under compressive force applied by AFM tip was evaluated. […] When the AFM tip touches a single protein molecule, a compressive force is applied on the targeted protein, the force monotonically increases up to the level of about 60 pN (FIG. 1E), and then the force drops to zero abruptly.
As the piezo continues to approach toward the surface, the compressive force on the protein molecule increases; simultaneously, the protein starts to deform. When the force reaches a threshold value, the protein molecule suddenly ruptures, and the force on the tip releases to zero. As the AFM piezo continues to approach the glass coverslip surface, the tip on glass cannot move anymore, and as a result, piezo displacement causes tip bending. Therefore, from top to bottom, the cantilever bending distance=the piezo displacement D (nm); and the direct AFM instrumental electronic signal was measured and recorded for the loading force, F (mV). If the cantilever force constant k (pN/nm) is known, then, from the reading of measured f (mV), the protein rupture threshold force (pN)=[…] can be calculated.
To evaluate the relation between the compressive threshold force and the tip approaching velocity, the experiment was repeated under different approaching velocities (FIGS. 8-9). The threshold force for a single protein HPPK rupture increases as the apparent loading rate (ALR) by the AFM tip increases (FIG. 8B). ALR equals the approaching velocity times the force constant of AFM cantilever.
A two-state theoretical model, the Bell-Evans theory (eqn. 3), was used to analyze the linear dependence of rupture force with the logarithm of loading rate (FIG. 8B):
where F(r) is the most probable rupture force; kB, the Boltzmann's constant; T, temperature in Kelvin; Xβ is the distance between the bonded state and the transition state where the activation barrier is located; r, the loading rate; and ko the off-rate constant at zero force. The fitting gives two model parameters, kinetic off rate constant ko=12.2±4.5 s^−1 and the distance from the bound to transition state, Xβ=0.34±0.05 nm. Using ko, the barrier height of the transition state (ΔG) was also calculated using the following equation (eqn. 4), where h is the Planck's constant. ΔG of HPPK protein rupture is 27.0±9.8 kBT.
The cover glass (Gold Seal) was first cleaned and silanized with a mixture of (3-aminopropyl) trimethoxysilane and isobutyltrimethoxysilane with a ratio of 1:10000 dissolved in DMSO (10% v/v) for 12 hours, and then incubated in 10 nM dimethyl suberimidate in 50 mM PBS (pH 8.0) for 4 h. After washing by water and methanol, the glass slide was incubated in 10 nM HPPK solutions (PBS, pH 7.4) for 4 h. The possibility of two protein molecules locating underneath the AFM tip or in the same laser focus spot of around 300 nm diameters is almost zero. Cy3-Cy5 labeled HPPK molecules were tethered randomly on a cover glass surface and then incubated in PBS buffer (pH=7.4) in a homemade chamber immobilized on top of the microscope. To decrease photobleaching, added 0.8% D-glucose, 1 mg/mL glucose oxidase, 0.04 mg/mL catalase, and about 1 mM Trolox were added in the buffer as an oxygen scavenger. […]

Sequence of tau protein (P10636 1-441 isoform P10636-8): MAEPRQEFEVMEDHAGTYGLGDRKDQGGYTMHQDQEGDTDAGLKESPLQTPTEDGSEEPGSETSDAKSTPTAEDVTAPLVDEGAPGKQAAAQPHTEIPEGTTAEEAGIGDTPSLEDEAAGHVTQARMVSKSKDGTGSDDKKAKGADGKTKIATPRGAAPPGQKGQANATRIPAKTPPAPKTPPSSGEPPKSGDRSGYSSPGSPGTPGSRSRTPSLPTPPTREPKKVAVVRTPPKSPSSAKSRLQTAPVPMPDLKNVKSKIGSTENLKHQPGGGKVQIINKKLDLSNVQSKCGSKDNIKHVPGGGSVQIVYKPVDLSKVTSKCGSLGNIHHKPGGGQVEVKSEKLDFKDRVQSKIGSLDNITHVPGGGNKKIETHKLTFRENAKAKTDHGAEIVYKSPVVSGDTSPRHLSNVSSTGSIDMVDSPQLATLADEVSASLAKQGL

In the case of `[Ca+2]` [Ca^2+], the “rupture event of CaM under compressive force in presence of / after treatment with the substance” value (calmodulin (CaM)) is reported as “does not go through a structural rupture; also recorded: No force drop was recorded”.

For `[K+]` [K^+, reference compound], the “rupture event of tau protein under compressive force in presence of the cation” value (tau protein) was “the rupture event remains”.

With `O=C(O)CN(CCOCCOCCN(CC(=O)O)CC(=O)O)CC(=O)O` [EGTA, reference compound] the “rupture event of CaM under compressive force in presence of / after treatment with the substance” value (calmodulin (CaM)) was “the rupture event recovers”.

For `[Mg+2]` [Mg^2+], the “rupture event of tau protein under compressive force in presence of the cation” value (tau protein) was “does not show such rupture events; also recorded: no rupture event was found; also recorded: No rupture event was observed”.

With calmodulin [CaM] the rupture threshold force ([1]; 50 nm/s approaching velocity) was 12 pN, the loading energy ([1]; 100 nm/s loading velocity) was 4-8 kBT and the mean rupture force ([1]; 200 nm/s loading velocity) was 25 pN. The rupture threshold force ([1]; 1000 nm/s approaching velocity) was 35 pN and the ΔG of rupture ([1]; Bell-Evans Model) was “about 25.6±7.3 kBT”.

B1: 6-hydroxymethyl-7,8-dihydropterin pyrophosphokinase (protein, UniProt P26281 2-159, looked up)
2-amino-4-hydroxy-6-hydroxymet …: TVAYIAIGSNLASPLEQVNAALKALGDIPESHILTVSSFYRTPPLGPQDQPDYLNAAVALETSLAPEELLNHTQRIELQQGRVRKAERWGPRTLDLDIMLFGNEVINTERLTVPHYDMKNRGFMLWPLFEIAPELVFPDGEMLRQILHTRAFDKLNKW
notes: 158-residue monomer kinase enzyme protein
With B1 the “rupture threshold force (mean)” value ([2]; 200 nm/s approaching/loading velocity) was 47 pN, the “threshold compressive force loading energy” value ([2]; 200 nm/s loading velocity) was “around 30 kBT” and the rupture threshold force ([2]; 2000 nm/s approaching velocity) was 75 pN. For the same molecule, the “distance from the bound to transition state Xβ” value ([2]; Bell-Evans fit) was 0.34±0.05 nm, the “kinetic off rate constant ko” value ([2]; Bell-Evans fit of rupture force vs loading rate) was 12.2 ± 4.5 s⁻¹ and the “AFM piezoelectric displacement from start of force loading to rupture” value ([2]; average, FIG. 10C) was 5.0˜6.0 nm. For the same molecule, the “barrier height of the transition state ΔG of protein rupture” value ([2]; calculated from ko) was 27.0±9.8 kBT and the “compressive force level reached before abrupt drop” value ([2]; single force curve, FIG. 1E) was “about 60 pN”.
